Measurements: patent publication US20230220021A1 (UNIVERSITY OF COPENHAGEN, published 2023)
[ ]: non-standard residue; d: D form.

B1: cyclic nNOS β-hairpin peptide D114A (peptide)
peptide: cyclo(THLETTFTGAGTPKTIRVTQ[dP]GQ)
SMILES: CC[C@H](C)[C@@H]1NC(=O)[C@H]([C@@H](C)O)NC(=O)[C@H](CCCCN)NC(=O)[C@@H]2CCCN2C(=O)[C@H]([C@@H](C)O)NC(=O)CNC(=O)[C@H](C)NC(=O)CNC(=O)[C@H]([C@@H](C)O)NC(=O)[C@H](Cc2ccccc2)NC(=O)[C@H]([C@@H](C)O)NC(=O)[C@H]([C@@H](C)O)NC(=O)[C@H](CCC(=O)O)NC(=O)[C@H](CC(C)C)NC(=O)[C@H](Cc2c[nH]cn2)NC(=O)[C@H]([C@@H](C)O)NC(=O)[C@H](CCC(N)=O)NC(=O)CNC(=O)[C@H]2CCCN2C(=O)[C@H](CCC(N)=O)NC(=O)[C@H]([C@@H](C)O)NC(=O)[C@H](C(C)C)NC(=O)[C@H](CCCNC(=N)N)NC1=O
B2: cyclic nNOS β-hairpin peptide T105A (peptide)
peptide: cyclo(AHLETTFTGDGTPKTIRVTQ[dP]GQ)
SMILES: CC[C@H](C)[C@@H]1NC(=O)[C@H]([C@@H](C)O)NC(=O)[C@H](CCCCN)NC(=O)[C@@H]2CCCN2C(=O)[C@H]([C@@H](C)O)NC(=O)CNC(=O)[C@H](CC(=O)O)NC(=O)CNC(=O)[C@H]([C@@H](C)O)NC(=O)[C@H](Cc2ccccc2)NC(=O)[C@H]([C@@H](C)O)NC(=O)[C@H]([C@@H](C)O)NC(=O)[C@H](CCC(=O)O)NC(=O)[C@H](CC(C)C)NC(=O)[C@H](Cc2c[nH]cn2)NC(=O)[C@H](C)NC(=O)[C@H](CCC(N)=O)NC(=O)CNC(=O)[C@H]2CCCN2C(=O)[C@H](CCC(N)=O)NC(=O)[C@H]([C@@H](C)O)NC(=O)[C@H](C(C)C)NC(=O)[C@H](CCCNC(=N)N)NC1=O
B3: cyclic nNOS β-hairpin peptide E108A (peptide)
peptide: cyclo(THLATTFTGDGTPKTIRVTQ[dP]GQ)
SMILES: CC[C@H](C)[C@@H]1NC(=O)[C@H]([C@@H](C)O)NC(=O)[C@H](CCCCN)NC(=O)[C@@H]2CCCN2C(=O)[C@H]([C@@H](C)O)NC(=O)CNC(=O)[C@H](CC(=O)O)NC(=O)CNC(=O)[C@H]([C@@H](C)O)NC(=O)[C@H](Cc2ccccc2)NC(=O)[C@H]([C@@H](C)O)NC(=O)[C@H]([C@@H](C)O)NC(=O)[C@H](C)NC(=O)[C@H](CC(C)C)NC(=O)[C@H](Cc2c[nH]cn2)NC(=O)[C@H]([C@@H](C)O)NC(=O)[C@H](CCC(N)=O)NC(=O)CNC(=O)[C@H]2CCCN2C(=O)[C@H](CCC(N)=O)NC(=O)[C@H]([C@@H](C)O)NC(=O)[C@H](C(C)C)NC(=O)[C@H](CCCNC(=N)N)NC1=O
B4: cyclic nNOS β-hairpin peptide G113A (peptide)
peptide: cyclo(THLETTFTADGTPKTIRVTQ[dP]GQ)
SMILES: CC[C@H](C)[C@@H]1NC(=O)[C@H]([C@@H](C)O)NC(=O)[C@H](CCCCN)NC(=O)[C@@H]2CCCN2C(=O)[C@H]([C@@H](C)O)NC(=O)CNC(=O)[C@H](CC(=O)O)NC(=O)[C@H](C)NC(=O)[C@H]([C@@H](C)O)NC(=O)[C@H](Cc2ccccc2)NC(=O)[C@H]([C@@H](C)O)NC(=O)[C@H]([C@@H](C)O)NC(=O)[C@H](CCC(=O)O)NC(=O)[C@H](CC(C)C)NC(=O)[C@H](Cc2c[nH]cn2)NC(=O)[C@H]([C@@H](C)O)NC(=O)[C@H](CCC(N)=O)NC(=O)CNC(=O)[C@H]2CCCN2C(=O)[C@H](CCC(N)=O)NC(=O)[C@H]([C@@H](C)O)NC(=O)[C@H](C(C)C)NC(=O)[C@H](CCCNC(=N)N)NC1=O
B5: cyclic nNOS β-hairpin peptide K118A (peptide)
peptide: cyclo(THLETTFTGDGTPATIRVTQ[dP]GQ)
SMILES: CC[C@H](C)[C@@H]1NC(=O)[C@H]([C@@H](C)O)NC(=O)[C@H](C)NC(=O)[C@@H]2CCCN2C(=O)[C@H]([C@@H](C)O)NC(=O)CNC(=O)[C@H](CC(=O)O)NC(=O)CNC(=O)[C@H]([C@@H](C)O)NC(=O)[C@H](Cc2ccccc2)NC(=O)[C@H]([C@@H](C)O)NC(=O)[C@H]([C@@H](C)O)NC(=O)[C@H](CCC(=O)O)NC(=O)[C@H](CC(C)C)NC(=O)[C@H](Cc2c[nH]cn2)NC(=O)[C@H]([C@@H](C)O)NC(=O)[C@H](CCC(N)=O)NC(=O)CNC(=O)[C@H]2CCCN2C(=O)[C@H](CCC(N)=O)NC(=O)[C@H]([C@@H](C)O)NC(=O)[C@H](C(C)C)NC(=O)[C@H](CCCNC(=N)N)NC1=O
B6: cyclic nNOS β-hairpin peptide P117A (peptide)
peptide: cyclo(THLETTFTGDGTAKTIRVTQ[dP]GQ)
SMILES: CC[C@H](C)[C@@H]1NC(=O)[C@H]([C@@H](C)O)NC(=O)[C@H](CCCCN)NC(=O)[C@H](C)NC(=O)[C@H]([C@@H](C)O)NC(=O)CNC(=O)[C@H](CC(=O)O)NC(=O)CNC(=O)[C@H]([C@@H](C)O)NC(=O)[C@H](Cc2ccccc2)NC(=O)[C@H]([C@@H](C)O)NC(=O)[C@H]([C@@H](C)O)NC(=O)[C@H](CCC(=O)O)NC(=O)[C@H](CC(C)C)NC(=O)[C@H](Cc2c[nH]cn2)NC(=O)[C@H]([C@@H](C)O)NC(=O)[C@H](CCC(N)=O)NC(=O)CNC(=O)[C@H]2CCCN2C(=O)[C@H](CCC(N)=O)NC(=O)[C@H]([C@@H](C)O)NC(=O)[C@H](C(C)C)NC(=O)[C@H](CCCNC(=N)N)NC1=O
B7: cyclic nNOS β-hairpin peptide Q124A (peptide)
peptide: cyclo(THLETTFTGDGTPKTIRVTA[dP]GQ)
SMILES: CC[C@H](C)[C@@H]1NC(=O)[C@H]([C@@H](C)O)NC(=O)[C@H](CCCCN)NC(=O)[C@@H]2CCCN2C(=O)[C@H]([C@@H](C)O)NC(=O)CNC(=O)[C@H](CC(=O)O)NC(=O)CNC(=O)[C@H]([C@@H](C)O)NC(=O)[C@H](Cc2ccccc2)NC(=O)[C@H]([C@@H](C)O)NC(=O)[C@H]([C@@H](C)O)NC(=O)[C@H](CCC(=O)O)NC(=O)[C@H](CC(C)C)NC(=O)[C@H](Cc2c[nH]cn2)NC(=O)[C@H]([C@@H](C)O)NC(=O)[C@H](CCC(N)=O)NC(=O)CNC(=O)[C@H]2CCCN2C(=O)[C@H](C)NC(=O)[C@H]([C@@H](C)O)NC(=O)[C@H](C(C)C)NC(=O)[C@H](CCCNC(=N)N)NC1=O
B8: cyclic nNOS β-hairpin peptide I120A (peptide)
peptide: cyclo(THLETTFTGDGTPKTARVTQ[dP]GQ)
SMILES: CC(C)C[C@@H]1NC(=O)[C@H](Cc2c[nH]cn2)NC(=O)[C@H]([C@@H](C)O)NC(=O)[C@H](CCC(N)=O)NC(=O)CNC(=O)[C@H]2CCCN2C(=O)[C@H](CCC(N)=O)NC(=O)[C@H]([C@@H](C)O)NC(=O)[C@H](C(C)C)NC(=O)[C@H](CCCNC(=N)N)NC(=O)[C@H](C)NC(=O)[C@H]([C@@H](C)O)NC(=O)[C@H](CCCCN)NC(=O)[C@@H]2CCCN2C(=O)[C@H]([C@@H](C)O)NC(=O)CNC(=O)[C@H](CC(=O)O)NC(=O)CNC(=O)[C@H]([C@@H](C)O)NC(=O)[C@H](Cc2ccccc2)NC(=O)[C@H]([C@@H](C)O)NC(=O)[C@H]([C@@H](C)O)NC(=O)[C@H](CCC(=O)O)NC1=O
B9: cyclic nNOS β-hairpin peptide L107A (peptide)
peptide: cyclo(THAETTFTGDGTPKTIRVTQ[dP]GQ)
SMILES: CC[C@H](C)[C@@H]1NC(=O)[C@H]([C@@H](C)O)NC(=O)[C@H](CCCCN)NC(=O)[C@@H]2CCCN2C(=O)[C@H]([C@@H](C)O)NC(=O)CNC(=O)[C@H](CC(=O)O)NC(=O)CNC(=O)[C@H]([C@@H](C)O)NC(=O)[C@H](Cc2ccccc2)NC(=O)[C@H]([C@@H](C)O)NC(=O)[C@H]([C@@H](C)O)NC(=O)[C@H](CCC(=O)O)NC(=O)[C@H](C)NC(=O)[C@H](Cc2c[nH]cn2)NC(=O)[C@H]([C@@H](C)O)NC(=O)[C@H](CCC(N)=O)NC(=O)CNC(=O)[C@H]2CCCN2C(=O)[C@H](CCC(N)=O)NC(=O)[C@H]([C@@H](C)O)NC(=O)[C@H](C(C)C)NC(=O)[C@H](CCCNC(=N)N)NC1=O
B10: cyclic nNOS β-hairpin peptide H106A (peptide)
peptide: cyclo(TALETTFTGDGTPKTIRVTQ[dP]GQ)
SMILES: CC[C@H](C)[C@@H]1NC(=O)[C@H]([C@@H](C)O)NC(=O)[C@H](CCCCN)NC(=O)[C@@H]2CCCN2C(=O)[C@H]([C@@H](C)O)NC(=O)CNC(=O)[C@H](CC(=O)O)NC(=O)CNC(=O)[C@H]([C@@H](C)O)NC(=O)[C@H](Cc2ccccc2)NC(=O)[C@H]([C@@H](C)O)NC(=O)[C@H]([C@@H](C)O)NC(=O)[C@H](CCC(=O)O)NC(=O)[C@H](CC(C)C)NC(=O)[C@H](C)NC(=O)[C@H]([C@@H](C)O)NC(=O)[C@H](CCC(N)=O)NC(=O)CNC(=O)[C@H]2CCCN2C(=O)[C@H](CCC(N)=O)NC(=O)[C@H]([C@@H](C)O)NC(=O)[C@H](C(C)C)NC(=O)[C@H](CCCNC(=N)N)NC1=O
B11: cyclic nNOS β-hairpin peptide R121A (peptide)
peptide: cyclo(THLETTFTGDGTPKTIAVTQ[dP]GQ)
SMILES: CC[C@H](C)[C@@H]1NC(=O)[C@H]([C@@H](C)O)NC(=O)[C@H](CCCCN)NC(=O)[C@@H]2CCCN2C(=O)[C@H]([C@@H](C)O)NC(=O)CNC(=O)[C@H](CC(=O)O)NC(=O)CNC(=O)[C@H]([C@@H](C)O)NC(=O)[C@H](Cc2ccccc2)NC(=O)[C@H]([C@@H](C)O)NC(=O)[C@H]([C@@H](C)O)NC(=O)[C@H](CCC(=O)O)NC(=O)[C@H](CC(C)C)NC(=O)[C@H](Cc2c[nH]cn2)NC(=O)[C@H]([C@@H](C)O)NC(=O)[C@H](CCC(N)=O)NC(=O)CNC(=O)[C@H]2CCCN2C(=O)[C@H](CCC(N)=O)NC(=O)[C@H]([C@@H](C)O)NC(=O)[C@H](C(C)C)NC(=O)[C@H](C)NC1=O

Each binder was assayed against T1, (7× His)-PSD-95-PDZ2 wild type (UniProt P78352 160-246) (assay: FP competition).
T1 construct: domain: PDZ2; recombinant from E. coli; also called PSD-95-PDZ2 WT; not shown: 7x His tag
T1 sequence (P78352 160-246): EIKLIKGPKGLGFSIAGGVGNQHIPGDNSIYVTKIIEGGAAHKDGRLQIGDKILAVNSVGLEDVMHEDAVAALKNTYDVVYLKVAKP
For B1, the Ki was 3.22 µM and the “Relative Ki (Ki mut/Ki WT)” value was 2.15. With B2 the Ki was 1.5 µM and the “Relative Ki (Ki mut/Ki WT)” value was 1. With B3 the Ki was 21.2 µM and the “Relative Ki (Ki mut/Ki WT)” value was 14.1. In the case of B4, the Ki is reported as 4.55 µM and the “Relative Ki (Ki mut/Ki WT)” value is reported as 3.03. B5 was tested, and the Ki was 1.43 µM and the “Relative Ki (Ki mut/Ki WT)” value was 0.95. In the case of B6, the Ki is reported as 1.61 µM and the “Relative Ki (Ki mut/Ki WT)” value is reported as 1.07. For B7, the Ki was 1.51 µM and the “Relative Ki (Ki mut/Ki WT)” value was 1.01. With B8 the Ki was 1.76 µM and the “Relative Ki (Ki mut/Ki WT)” value was 1.17. For B9, the Ki was 3.54 µM and the “Relative Ki (Ki mut/Ki WT)” value was 2.36. In the case of B10, the Ki is reported as 2.06 µM and the “Relative Ki (Ki mut/Ki WT)” value is reported as 1.37. B11 was tested, and the Ki was 2.47 µM and the “Relative Ki (Ki mut/Ki WT)” value was 1.65.
